Results reported in article PMC2192624 (The Journal of Experimental Medicine, 1996).

Target: T1, Gal4 DNA-binding domain (DNABD) linked to the full-length CIITA (pSGCIITA) (UniProt P33076 1-1130)
T1 sequence: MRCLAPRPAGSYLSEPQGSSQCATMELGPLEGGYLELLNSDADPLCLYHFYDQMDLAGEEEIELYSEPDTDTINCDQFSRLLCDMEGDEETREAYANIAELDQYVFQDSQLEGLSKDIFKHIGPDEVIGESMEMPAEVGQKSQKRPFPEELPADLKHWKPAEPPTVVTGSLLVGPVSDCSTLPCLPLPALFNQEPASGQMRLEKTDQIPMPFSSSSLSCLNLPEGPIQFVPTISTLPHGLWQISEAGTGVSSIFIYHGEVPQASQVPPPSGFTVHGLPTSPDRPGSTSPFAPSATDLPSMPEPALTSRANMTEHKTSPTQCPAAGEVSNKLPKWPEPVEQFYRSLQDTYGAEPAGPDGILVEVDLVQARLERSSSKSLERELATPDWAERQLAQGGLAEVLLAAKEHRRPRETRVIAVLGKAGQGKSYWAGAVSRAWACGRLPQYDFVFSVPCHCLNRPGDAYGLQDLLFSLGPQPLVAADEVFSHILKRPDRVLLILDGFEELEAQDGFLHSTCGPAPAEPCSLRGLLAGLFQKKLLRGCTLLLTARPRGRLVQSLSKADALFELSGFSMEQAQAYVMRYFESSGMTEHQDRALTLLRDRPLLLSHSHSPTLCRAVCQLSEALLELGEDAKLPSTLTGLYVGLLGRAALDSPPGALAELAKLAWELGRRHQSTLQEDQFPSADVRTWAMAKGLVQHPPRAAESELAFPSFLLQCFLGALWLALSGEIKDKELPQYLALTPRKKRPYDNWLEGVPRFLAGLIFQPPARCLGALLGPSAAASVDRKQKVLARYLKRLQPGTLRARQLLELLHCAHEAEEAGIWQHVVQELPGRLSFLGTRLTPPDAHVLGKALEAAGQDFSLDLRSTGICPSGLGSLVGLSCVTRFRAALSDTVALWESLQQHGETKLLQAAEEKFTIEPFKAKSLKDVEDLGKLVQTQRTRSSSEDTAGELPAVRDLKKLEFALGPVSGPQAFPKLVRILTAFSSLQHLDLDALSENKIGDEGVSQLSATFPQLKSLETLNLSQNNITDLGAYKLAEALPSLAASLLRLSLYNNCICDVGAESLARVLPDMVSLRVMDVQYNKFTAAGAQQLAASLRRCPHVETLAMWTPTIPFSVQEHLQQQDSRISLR
Test: two-hybrid

B1: Bob1 expressed from pCBOB1 (natural protein)
chain: MLWQKPTAPEQAPAPARPYQGVRVKEPVKELLRRKRGHASSGAAPAPTAVVLPHQPLATYTTVGPSCLDMEGSVSAVTEEAALCAGWLSQPTPATLQPLAPWTPYTEYVPHEAVSCPYSADMYVQPVCPSYTVVGPSSVLTYASPPLITNVTTRSSATPAVGPPLEGPEHQAPLTYFPWPQPLSTLPTSTLQYQPPAPALPGPQFVQLPISIPEPVLQDMEDPRRAASSLTIDKLLLEEEDSDAYALNHTLSVEGF
fold transactivation of pDRAUASgCAT (CAT reporter, with OBS): 95 fold
fold transactivation of pG1E1bCAT (CAT reporter, no OBS): 90 fold
